{"source": "patent US8361728B2", "about": "“Method for diagnosis of glutamate dehydrogenase disorders” (priority 2008, dated 2013)"}
{"tested_on": "N", "experiment": "purified protein, by the assay type", "units": {"Km": "mM"}}
{"substance": "hGDH1 (Homo sapiens)", "Km": "13.39 ± 0.72"}
{"substance": "Ser445-hGDH2 (Homo sapiens)", "Km": "17.05 ± 2.01"}
{"substance": "Ala445-hGDH2 (Homo sapiens; S498A)", "Km": "21.36 ± 3.56"}
